Measurements as given in patent publication US20030133924A1.

What was measured:
[1] = target: Mannose 6-phosphate (M6P) receptor purified from bovine liver, coupled to NHS-Sepharose 4B FF resin (bovine); assay: M6P receptor affinity column, 0-1 mM then 5 mM M6P elution; GBA activity in fractions (FIG. 1A)
[2] = target: Mannose 6-phosphate (M6P) receptor purified from bovine liver, coupled to NHS-Sepharose 4B FF resin (bovine); assay: M6P receptor affinity column, 0-1 mM then 5 mM M6P elution; GBA activity in fractions (FIG. 1B)

Sequence of Mannose 6-phosphate (M6P) receptor purified from bovine liver, coupled to NHS-Sepharose 4B FF resin (bovine) (P08169 45-2499): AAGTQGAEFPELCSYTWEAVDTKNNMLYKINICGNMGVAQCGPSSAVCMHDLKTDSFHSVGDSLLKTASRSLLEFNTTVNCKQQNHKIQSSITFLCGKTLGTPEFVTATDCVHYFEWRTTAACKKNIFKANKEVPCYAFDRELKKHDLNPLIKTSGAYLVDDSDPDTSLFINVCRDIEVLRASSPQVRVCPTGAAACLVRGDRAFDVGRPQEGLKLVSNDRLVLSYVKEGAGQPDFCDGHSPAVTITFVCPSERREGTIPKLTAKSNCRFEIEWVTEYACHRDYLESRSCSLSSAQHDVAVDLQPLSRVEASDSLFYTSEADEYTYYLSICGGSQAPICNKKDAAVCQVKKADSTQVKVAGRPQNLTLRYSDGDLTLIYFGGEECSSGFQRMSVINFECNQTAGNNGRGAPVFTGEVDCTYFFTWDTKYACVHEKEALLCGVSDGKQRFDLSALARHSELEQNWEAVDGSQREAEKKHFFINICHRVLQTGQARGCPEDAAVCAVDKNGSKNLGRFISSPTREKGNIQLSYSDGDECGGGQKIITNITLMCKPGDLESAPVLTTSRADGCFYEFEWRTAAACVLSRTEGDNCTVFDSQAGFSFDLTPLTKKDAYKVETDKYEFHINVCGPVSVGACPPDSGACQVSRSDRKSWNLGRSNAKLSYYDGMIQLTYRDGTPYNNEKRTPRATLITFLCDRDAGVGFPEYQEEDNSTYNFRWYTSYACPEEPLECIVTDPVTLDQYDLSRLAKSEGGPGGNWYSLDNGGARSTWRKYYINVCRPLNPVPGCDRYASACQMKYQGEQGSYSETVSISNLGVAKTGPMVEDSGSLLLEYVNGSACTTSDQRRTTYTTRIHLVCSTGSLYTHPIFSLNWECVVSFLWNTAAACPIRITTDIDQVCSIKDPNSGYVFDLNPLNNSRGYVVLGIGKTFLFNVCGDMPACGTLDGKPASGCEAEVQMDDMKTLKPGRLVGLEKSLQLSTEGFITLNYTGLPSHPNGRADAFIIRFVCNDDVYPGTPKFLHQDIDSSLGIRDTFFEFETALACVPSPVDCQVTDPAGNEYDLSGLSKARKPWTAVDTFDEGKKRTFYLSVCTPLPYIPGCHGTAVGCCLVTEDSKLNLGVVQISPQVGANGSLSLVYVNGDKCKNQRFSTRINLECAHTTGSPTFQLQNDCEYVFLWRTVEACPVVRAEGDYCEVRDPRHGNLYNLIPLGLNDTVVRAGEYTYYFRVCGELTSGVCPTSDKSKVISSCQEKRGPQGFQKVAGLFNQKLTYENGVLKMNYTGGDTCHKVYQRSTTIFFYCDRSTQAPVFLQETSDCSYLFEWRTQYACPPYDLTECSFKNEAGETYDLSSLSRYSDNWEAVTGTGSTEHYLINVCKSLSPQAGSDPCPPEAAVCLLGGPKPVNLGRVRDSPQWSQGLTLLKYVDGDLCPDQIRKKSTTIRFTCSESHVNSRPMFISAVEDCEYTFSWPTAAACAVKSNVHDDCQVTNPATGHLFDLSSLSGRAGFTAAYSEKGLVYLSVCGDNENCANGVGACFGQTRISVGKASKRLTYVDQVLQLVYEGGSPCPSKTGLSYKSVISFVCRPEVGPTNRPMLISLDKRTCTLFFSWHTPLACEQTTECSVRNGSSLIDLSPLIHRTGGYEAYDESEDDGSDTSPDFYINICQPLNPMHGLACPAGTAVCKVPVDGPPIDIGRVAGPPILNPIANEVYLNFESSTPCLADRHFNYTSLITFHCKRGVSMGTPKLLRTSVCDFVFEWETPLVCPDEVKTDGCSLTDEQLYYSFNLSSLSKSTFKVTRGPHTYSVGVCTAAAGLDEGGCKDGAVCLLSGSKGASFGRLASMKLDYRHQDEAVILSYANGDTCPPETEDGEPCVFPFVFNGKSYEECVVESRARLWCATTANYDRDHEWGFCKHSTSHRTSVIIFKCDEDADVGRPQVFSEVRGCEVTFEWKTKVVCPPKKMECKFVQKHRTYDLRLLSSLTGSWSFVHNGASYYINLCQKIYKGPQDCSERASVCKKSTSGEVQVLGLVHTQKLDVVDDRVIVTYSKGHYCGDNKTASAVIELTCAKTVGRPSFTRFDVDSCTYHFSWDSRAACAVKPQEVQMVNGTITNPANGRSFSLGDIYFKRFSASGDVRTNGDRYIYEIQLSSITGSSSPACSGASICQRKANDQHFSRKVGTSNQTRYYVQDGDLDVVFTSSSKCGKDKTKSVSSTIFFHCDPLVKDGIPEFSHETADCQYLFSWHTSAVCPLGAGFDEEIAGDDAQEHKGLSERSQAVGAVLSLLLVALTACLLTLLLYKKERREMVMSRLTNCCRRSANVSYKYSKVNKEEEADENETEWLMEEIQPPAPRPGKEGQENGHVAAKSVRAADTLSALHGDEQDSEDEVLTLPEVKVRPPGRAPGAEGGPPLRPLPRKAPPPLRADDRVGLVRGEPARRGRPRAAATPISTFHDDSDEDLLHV

**Q.** With “human acid β-glucocerebrosidase (GBA), partially purified, before phosphorylation (from UniProt P04062 40-536) (enzyme)” as the substance, how does the percent of sample eluted prior to the start of the M6P gradient (not retained on the receptor column) [1] read?
**A.** Its percent of sample eluted prior to the start of the M6P gradient (not retained on the receptor column) is > 99%.

**Q.** Which results are given for “highly phosphorylated human acid β-glucocerebrosidase (HP-GBA), treated with GlcNAc-phosphotransferase and uncovering enzyme (from UniProt P04062 40-536)”?
**A.** percent of GBA activity eluted after the start of the M6P gradient (retained on the receptor column) [2]: 77%; percent of the retained GBA activity eluted only after the addition of 5 mM M6P [2]: 35%
